Measurements reported in the supplement of paper PMC9876800.

What follows are substances tested on peptide library, one residue held at a place counted from the S/T acceptor (assay: relative phosphorylation of the sub-library (ratio to the mean residue at this position); human; higher = residue favoured). Settings: Y fixed; at -2.
Procedure, shortened: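 Purified recombinant kinases (human or orthologue constructs) were incubated in 384-well plates with biotinylated degenerate peptide sub-libraries, each fixing one residue at one position around a central Ser/Thr. Peptides were at 50 μM, with 50 μM ATP spiked with γ-32P-ATP, for 90 min under kinase-specific conditions. Spots on streptavidin membranes were phosphorimaged and quantified by densitometry. Relative sub-library phosphorylation is a ratio to the mean residue at that position.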

PAK2, construct: aa3-end, sequence (Q13177 3-524, looked up): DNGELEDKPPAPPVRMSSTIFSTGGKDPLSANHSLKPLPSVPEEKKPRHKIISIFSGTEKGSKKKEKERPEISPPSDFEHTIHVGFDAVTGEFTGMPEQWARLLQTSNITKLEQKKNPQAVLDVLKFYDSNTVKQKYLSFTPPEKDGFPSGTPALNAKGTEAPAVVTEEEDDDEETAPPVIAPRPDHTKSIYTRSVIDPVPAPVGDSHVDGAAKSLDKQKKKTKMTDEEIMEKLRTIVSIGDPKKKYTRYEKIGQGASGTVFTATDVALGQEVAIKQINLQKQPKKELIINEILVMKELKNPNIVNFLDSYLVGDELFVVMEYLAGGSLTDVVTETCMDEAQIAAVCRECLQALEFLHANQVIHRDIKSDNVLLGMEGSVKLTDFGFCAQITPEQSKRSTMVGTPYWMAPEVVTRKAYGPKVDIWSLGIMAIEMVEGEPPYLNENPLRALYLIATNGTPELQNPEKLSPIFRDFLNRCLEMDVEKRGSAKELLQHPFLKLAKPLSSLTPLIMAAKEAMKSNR
NEK1, construct: aa1-505, sequence (Q96PY6 1-505, looked up): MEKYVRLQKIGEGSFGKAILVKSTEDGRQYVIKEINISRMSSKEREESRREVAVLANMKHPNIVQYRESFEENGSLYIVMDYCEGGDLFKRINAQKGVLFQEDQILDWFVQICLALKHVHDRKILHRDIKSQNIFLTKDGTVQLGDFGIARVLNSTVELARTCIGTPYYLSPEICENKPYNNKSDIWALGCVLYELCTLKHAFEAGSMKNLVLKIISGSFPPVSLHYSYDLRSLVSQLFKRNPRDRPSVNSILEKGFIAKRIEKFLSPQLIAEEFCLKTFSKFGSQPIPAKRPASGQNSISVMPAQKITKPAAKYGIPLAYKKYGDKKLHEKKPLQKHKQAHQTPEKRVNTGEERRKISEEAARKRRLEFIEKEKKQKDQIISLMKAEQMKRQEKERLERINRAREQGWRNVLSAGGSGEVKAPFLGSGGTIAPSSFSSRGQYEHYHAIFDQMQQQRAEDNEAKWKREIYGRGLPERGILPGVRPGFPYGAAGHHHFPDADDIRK
CSNK2A1, construct: Full length, sequence (P68400 whole entry, looked up): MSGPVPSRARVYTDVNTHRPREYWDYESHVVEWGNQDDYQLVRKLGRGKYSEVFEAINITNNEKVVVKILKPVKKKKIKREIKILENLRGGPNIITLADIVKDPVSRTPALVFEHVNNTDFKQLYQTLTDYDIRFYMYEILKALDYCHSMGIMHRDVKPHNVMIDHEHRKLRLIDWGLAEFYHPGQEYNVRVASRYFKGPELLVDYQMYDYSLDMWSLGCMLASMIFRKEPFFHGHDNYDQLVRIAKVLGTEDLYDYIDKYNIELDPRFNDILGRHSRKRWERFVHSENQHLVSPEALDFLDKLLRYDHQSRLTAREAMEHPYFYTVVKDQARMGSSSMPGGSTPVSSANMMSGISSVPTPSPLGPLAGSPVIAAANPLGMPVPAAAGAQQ
STK10, construct: aa18-317, sequence (O94804 18-317, looked up): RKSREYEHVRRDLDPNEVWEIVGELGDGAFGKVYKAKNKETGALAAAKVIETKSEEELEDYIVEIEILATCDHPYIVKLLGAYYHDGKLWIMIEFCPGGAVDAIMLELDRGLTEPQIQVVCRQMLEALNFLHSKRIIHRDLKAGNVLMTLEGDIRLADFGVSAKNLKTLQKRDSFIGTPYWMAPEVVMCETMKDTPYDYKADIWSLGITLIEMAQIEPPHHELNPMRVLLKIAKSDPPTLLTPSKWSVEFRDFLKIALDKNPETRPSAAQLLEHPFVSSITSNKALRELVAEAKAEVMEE

Substance | relative phosphorylation
PRKCG, construct: Full length (from UniProt P05129) | 0.841
STK10, construct: aa18-317 (from UniProt O94804) | 2.91
STK39, construct: Full length (from UniProt Q9UEW8) | 2.84

Same assay, conditions: Y fixed; at -3

Substance | relative phosphorylation
CSNK2A1, construct: Full length (from UniProt P68400) | 1.21
NEK1, construct: aa1-505 (from UniProt Q96PY6) | 1.06
PAK2, construct: aa3-end (from UniProt Q13177) | 0.801
PRKCG, construct: Full length (from UniProt P05129) | 0.725
STK10, construct: aa18-317 (from UniProt O94804) | 1.11
STK39, construct: Full length (from UniProt Q9UEW8) | 2.24

Same assay, conditions: Y fixed; at -4

Substance | relative phosphorylation
CSNK2A1, construct: Full length (from UniProt P68400) | 1.08
NEK1, construct: aa1-505 (from UniProt Q96PY6) | 0.887
PAK2, construct: aa3-end (from UniProt Q13177) | 0.84
PRKCG, construct: Full length (from UniProt P05129) | 0.799
STK10, construct: aa18-317 (from UniProt O94804) | 0.877
STK39, construct: Full length (from UniProt Q9UEW8) | 1.17

Same assay, conditions: Y fixed; at -5

Substance | relative phosphorylation
CSNK2A1, construct: Full length (from UniProt P68400) | 1.06
NEK1, construct: aa1-505 (from UniProt Q96PY6) | 0.835
PAK2, construct: aa3-end (from UniProt Q13177) | 0.858
PRKCG, construct: Full length (from UniProt P05129) | 0.848
STK10, construct: aa18-317 (from UniProt O94804) | 0.788
STK39, construct: Full length (from UniProt Q9UEW8) | 1.34

Same assay, conditions: pThr fixed; at +1

Substance | relative phosphorylation
CSNK2A1, construct: Full length (from UniProt P68400) | 5.46
NEK1, construct: aa1-505 (from UniProt Q96PY6) | 0.424
PAK2, construct: aa3-end (from UniProt Q13177) | 0.66
PRKCG, construct: Full length (from UniProt P05129) | 0.973
STK10, construct: aa18-317 (from UniProt O94804) | 0.44
STK39, construct: Full length (from UniProt Q9UEW8) | 0.677

Same assay, conditions: pThr fixed; at +2

Substance | relative phosphorylation
CSNK2A1, construct: Full length (from UniProt P68400) | 1.84
NEK1, construct: aa1-505 (from UniProt Q96PY6) | 0.571
PAK2, construct: aa3-end (from UniProt Q13177) | 0.551
PRKCG, construct: Full length (from UniProt P05129) | 0.563
STK10, construct: aa18-317 (from UniProt O94804) | 0.484
STK39, construct: Full length (from UniProt Q9UEW8) | 0.474

Same assay, conditions: pThr fixed; at +3

Substance | relative phosphorylation
CSNK2A1, construct: Full length (from UniProt P68400) | 1.96
NEK1, construct: aa1-505 (from UniProt Q96PY6) | 0.507
PAK2, construct: aa3-end (from UniProt Q13177) | 0.597
PRKCG, construct: Full length (from UniProt P05129) | 0.673
STK10, construct: aa18-317 (from UniProt O94804) | 0.586
STK39, construct: Full length (from UniProt Q9UEW8) | 0.767

Same assay, conditions: pThr fixed; at +4

Substance | relative phosphorylation
CSNK2A1, construct: Full length (from UniProt P68400) | 6.46
NEK1, construct: aa1-505 (from UniProt Q96PY6) | 0.579
PAK2, construct: aa3-end (from UniProt Q13177) | 1.12
PRKCG, construct: Full length (from UniProt P05129) | 0.486
STK10, construct: aa18-317 (from UniProt O94804) | 0.537
STK39, construct: Full length (from UniProt Q9UEW8) | 0.493

Same assay, conditions: pThr fixed; at -1

Substance | relative phosphorylation
CSNK2A1, construct: Full length (from UniProt P68400) | 1.96
NEK1, construct: aa1-505 (from UniProt Q96PY6) | 0.323
PAK2, construct: aa3-end (from UniProt Q13177) | 0.392
PRKCG, construct: Full length (from UniProt P05129) | 0.484
STK10, construct: aa18-317 (from UniProt O94804) | 0.274
STK39, construct: Full length (from UniProt Q9UEW8) | 0.867

Same assay, conditions: pThr fixed; at -2

Substance | relative phosphorylation
CSNK2A1, construct: Full length (from UniProt P68400) | 1.59
NEK1, construct: aa1-505 (from UniProt Q96PY6) | 0.516
PAK2, construct: aa3-end (from UniProt Q13177) | 0.495
PRKCG, construct: Full length (from UniProt P05129) | 0.746
STK10, construct: aa18-317 (from UniProt O94804) | 0.358
STK39, construct: Full length (from UniProt Q9UEW8) | 0.793

Same assay, conditions: pThr fixed; at -3

Substance | relative phosphorylation
CSNK2A1, construct: Full length (from UniProt P68400) | 2.22
NEK1, construct: aa1-505 (from UniProt Q96PY6) | 0.508
PAK2, construct: aa3-end (from UniProt Q13177) | 0.74
PRKCG, construct: Full length (from UniProt P05129) | 0.805
STK10, construct: aa18-317 (from UniProt O94804) | 0.612
STK39, construct: Full length (from UniProt Q9UEW8) | 1.11

Same assay, conditions: pThr fixed; at -4

Substance | relative phosphorylation
CSNK2A1, construct: Full length (from UniProt P68400) | 1.83
NEK1, construct: aa1-505 (from UniProt Q96PY6) | 0.746
PAK2, construct: aa3-end (from UniProt Q13177) | 1.04
PRKCG, construct: Full length (from UniProt P05129) | 0.947
STK10, construct: aa18-317 (from UniProt O94804) | 0.857
STK39, construct: Full length (from UniProt Q9UEW8) | 1.19

Same assay, conditions: pThr fixed; at -5

Substance | relative phosphorylation
CSNK2A1, construct: Full length (from UniProt P68400) | 1.39
NEK1, construct: aa1-505 (from UniProt Q96PY6) | 0.905
PAK2, construct: aa3-end (from UniProt Q13177) | 0.931
PRKCG, construct: Full length (from UniProt P05129) | 0.683
STK10, construct: aa18-317 (from UniProt O94804) | 0.871
STK39, construct: Full length (from UniProt Q9UEW8) | 1.25

Same assay, conditions: pTyr fixed; at +1

Substance | relative phosphorylation
CSNK2A1, construct: Full length (from UniProt P68400) | 0.808
NEK1, construct: aa1-505 (from UniProt Q96PY6) | 0.397
PAK2, construct: aa3-end (from UniProt Q13177) | 0.822
PRKCG, construct: Full length (from UniProt P05129) | 0.794
STK10, construct: aa18-317 (from UniProt O94804) | 0.362
STK39, construct: Full length (from UniProt Q9UEW8) | 0.614

Same assay, conditions: pTyr fixed; at +2

Substance | relative phosphorylation
CSNK2A1, construct: Full length (from UniProt P68400) | 2.14
NEK1, construct: aa1-505 (from UniProt Q96PY6) | 0.434
PAK2, construct: aa3-end (from UniProt Q13177) | 2.1
PRKCG, construct: Full length (from UniProt P05129) | 0.916
STK10, construct: aa18-317 (from UniProt O94804) | 0.314
STK39, construct: Full length (from UniProt Q9UEW8) | 0.352

Same assay, conditions: pTyr fixed; at +3

Substance | relative phosphorylation
CSNK2A1, construct: Full length (from UniProt P68400) | 4.29
NEK1, construct: aa1-505 (from UniProt Q96PY6) | 0.642
PAK2, construct: aa3-end (from UniProt Q13177) | 1.11
PRKCG, construct: Full length (from UniProt P05129) | 0.911
STK10, construct: aa18-317 (from UniProt O94804) | 0.667
STK39, construct: Full length (from UniProt Q9UEW8) | 1

Same assay, conditions: pTyr fixed; at +4

Substance | relative phosphorylation
CSNK2A1, construct: Full length (from UniProt P68400) | 3.87
NEK1, construct: aa1-505 (from UniProt Q96PY6) | 0.547
PAK2, construct: aa3-end (from UniProt Q13177) | 0.856
PRKCG, construct: Full length (from UniProt P05129) | 0.498
STK10, construct: aa18-317 (from UniProt O94804) | 0.476
STK39, construct: Full length (from UniProt Q9UEW8) | 0.586

Same assay, conditions: pTyr fixed; at -1

Substance | relative phosphorylation
CSNK2A1, construct: Full length (from UniProt P68400) | 3.49
NEK1, construct: aa1-505 (from UniProt Q96PY6) | 0.707
PAK2, construct: aa3-end (from UniProt Q13177) | 0.652
PRKCG, construct: Full length (from UniProt P05129) | 0.875
STK10, construct: aa18-317 (from UniProt O94804) | 0.382
STK39, construct: Full length (from UniProt Q9UEW8) | 1.77

Same assay, conditions: pTyr fixed; at -2

Substance | relative phosphorylation
CSNK2A1, construct: Full length (from UniProt P68400) | 2.41
NEK1, construct: aa1-505 (from UniProt Q96PY6) | 0.523
PAK2, construct: aa3-end (from UniProt Q13177) | 0.379
PRKCG, construct: Full length (from UniProt P05129) | 0.842
STK10, construct: aa18-317 (from UniProt O94804) | 0.491
STK39, construct: Full length (from UniProt Q9UEW8) | 1.16

Same assay, conditions: pTyr fixed; at -3

Substance | relative phosphorylation
CSNK2A1, construct: Full length (from UniProt P68400) | 2.37
NEK1, construct: aa1-505 (from UniProt Q96PY6) | 0.648
PAK2, construct: aa3-end (from UniProt Q13177) | 0.8
PRKCG, construct: Full length (from UniProt P05129) | 0.973
STK10, construct: aa18-317 (from UniProt O94804) | 0.938
STK39, construct: Full length (from UniProt Q9UEW8) | 1.02

Same assay, conditions: pTyr fixed; at -4

Substance | relative phosphorylation
CSNK2A1, construct: Full length (from UniProt P68400) | 1.4
NEK1, construct: aa1-505 (from UniProt Q96PY6) | 0.851
PAK2, construct: aa3-end (from UniProt Q13177) | 0.71
PRKCG, construct: Full length (from UniProt P05129) | 0.86
STK10, construct: aa18-317 (from UniProt O94804) | 0.816
STK39, construct: Full length (from UniProt Q9UEW8) | 1.25

Same assay, conditions: pTyr fixed; at -5

Substance | relative phosphorylation
CSNK2A1, construct: Full length (from UniProt P68400) | 1.47
NEK1, construct: aa1-505 (from UniProt Q96PY6) | 1.03
PAK2, construct: aa3-end (from UniProt Q13177) | 0.876
PRKCG, construct: Full length (from UniProt P05129) | 0.8
STK10, construct: aa18-317 (from UniProt O94804) | 0.855
STK39, construct: Full length (from UniProt Q9UEW8) | 1.45
